Source: patent publication CN116507641A (XINSHI BIOPHARMACEUTICAL CO LTD, dated 2023)

T1: 食蟹猴结合素-4 (cynomolgus Nectin-4) (cynomolgus monkey, UniProt Q96NY8 32-510 (human entry))
T1 construct: Transiently expressed on 293T cells; also called XP_005541277.1
T1 chain: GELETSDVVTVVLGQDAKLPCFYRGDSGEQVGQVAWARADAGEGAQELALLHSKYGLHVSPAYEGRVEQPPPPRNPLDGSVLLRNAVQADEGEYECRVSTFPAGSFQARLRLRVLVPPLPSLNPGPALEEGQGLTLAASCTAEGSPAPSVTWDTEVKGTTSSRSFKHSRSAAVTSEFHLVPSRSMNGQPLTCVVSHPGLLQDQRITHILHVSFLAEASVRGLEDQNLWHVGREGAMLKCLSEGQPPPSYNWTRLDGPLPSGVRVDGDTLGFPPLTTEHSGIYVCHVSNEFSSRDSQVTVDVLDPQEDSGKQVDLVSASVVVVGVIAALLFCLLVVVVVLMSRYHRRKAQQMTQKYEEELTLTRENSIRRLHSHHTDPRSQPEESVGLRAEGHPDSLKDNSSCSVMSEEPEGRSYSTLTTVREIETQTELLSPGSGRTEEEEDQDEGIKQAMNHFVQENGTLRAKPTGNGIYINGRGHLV

T2: 大鼠结合素-4 (rat Nectin-4) (rat, UniProt Q8R007 31-508 (mouse entry))
T2 construct: Transiently expressed on 293T cells; also called NP_001102546.1
T2 chain: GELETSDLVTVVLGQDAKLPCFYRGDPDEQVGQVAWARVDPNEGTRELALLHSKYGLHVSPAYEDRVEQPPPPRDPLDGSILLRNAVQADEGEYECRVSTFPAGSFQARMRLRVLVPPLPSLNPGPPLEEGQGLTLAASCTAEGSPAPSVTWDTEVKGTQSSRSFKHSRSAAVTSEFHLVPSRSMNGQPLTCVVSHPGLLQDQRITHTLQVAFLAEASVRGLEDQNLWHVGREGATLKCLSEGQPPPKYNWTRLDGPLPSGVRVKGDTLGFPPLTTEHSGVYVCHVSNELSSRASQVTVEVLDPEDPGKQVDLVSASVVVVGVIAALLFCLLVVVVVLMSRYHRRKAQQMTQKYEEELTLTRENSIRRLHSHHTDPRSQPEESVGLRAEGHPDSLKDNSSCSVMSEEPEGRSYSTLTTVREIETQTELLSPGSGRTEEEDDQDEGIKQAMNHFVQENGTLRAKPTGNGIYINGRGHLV

T3: 小鼠结合素-4 (mouse Nectin-4) (mouse, UniProt Q8R007 31-508)
T3 construct: Transiently expressed on 293T cells; also called NP_082169.2
T3 sequence: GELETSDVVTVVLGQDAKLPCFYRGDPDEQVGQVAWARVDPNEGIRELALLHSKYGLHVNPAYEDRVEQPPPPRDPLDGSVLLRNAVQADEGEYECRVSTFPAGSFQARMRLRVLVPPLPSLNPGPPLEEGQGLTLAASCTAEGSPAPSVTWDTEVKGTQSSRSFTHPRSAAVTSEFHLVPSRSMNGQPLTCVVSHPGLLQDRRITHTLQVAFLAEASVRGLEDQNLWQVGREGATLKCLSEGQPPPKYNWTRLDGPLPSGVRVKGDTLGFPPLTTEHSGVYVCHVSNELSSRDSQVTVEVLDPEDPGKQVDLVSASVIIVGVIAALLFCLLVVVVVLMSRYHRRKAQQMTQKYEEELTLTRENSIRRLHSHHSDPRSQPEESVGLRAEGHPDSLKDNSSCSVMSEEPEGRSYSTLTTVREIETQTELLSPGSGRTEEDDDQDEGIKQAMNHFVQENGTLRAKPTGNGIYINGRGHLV

T4: 人结合素-2 (recombinant human Nectin-2; ACROBiosystems PV2-H52E2) (human, UniProt Q92692 32-360)
T4 construct: extracellular domain
T4 sequence (looked up): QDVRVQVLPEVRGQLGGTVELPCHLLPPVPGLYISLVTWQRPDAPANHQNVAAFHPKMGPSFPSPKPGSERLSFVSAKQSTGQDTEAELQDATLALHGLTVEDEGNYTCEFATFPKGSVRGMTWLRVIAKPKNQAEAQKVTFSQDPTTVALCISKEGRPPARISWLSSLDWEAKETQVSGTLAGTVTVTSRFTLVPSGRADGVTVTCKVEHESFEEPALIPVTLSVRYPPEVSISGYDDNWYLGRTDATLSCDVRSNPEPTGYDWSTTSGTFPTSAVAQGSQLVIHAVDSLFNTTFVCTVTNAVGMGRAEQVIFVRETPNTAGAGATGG

T5: 人结合素-4变体 ΔV结构域 (human Nectin-4 lacking amino acids 32-147) (human, UniProt Q96NY8 148-510)
T5 construct: Transiently expressed on 293T cells; also called 缺少Ig样V型结构域的变体
T5 sequence: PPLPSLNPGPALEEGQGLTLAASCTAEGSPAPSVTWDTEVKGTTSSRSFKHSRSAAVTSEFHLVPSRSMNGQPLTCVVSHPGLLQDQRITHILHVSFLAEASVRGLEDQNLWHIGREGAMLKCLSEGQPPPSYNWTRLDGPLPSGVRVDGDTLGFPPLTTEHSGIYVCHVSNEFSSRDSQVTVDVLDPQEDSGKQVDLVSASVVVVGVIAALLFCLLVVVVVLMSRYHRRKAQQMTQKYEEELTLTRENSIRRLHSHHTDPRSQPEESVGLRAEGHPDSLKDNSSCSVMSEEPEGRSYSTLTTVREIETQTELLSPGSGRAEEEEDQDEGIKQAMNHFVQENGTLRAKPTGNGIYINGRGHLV

T6: 人重组结合素-4蛋白 (recombinant human Nectin-4, extracellular domain) (human, UniProt Q96NY8 32-349)
T6 construct: Protein coated on the ELISA plate; May be the same protein as the Nectin-4-His used in SPR; also called 重组结合素-4(细胞外结构域); 人结合素-4蛋白
T6 sequence: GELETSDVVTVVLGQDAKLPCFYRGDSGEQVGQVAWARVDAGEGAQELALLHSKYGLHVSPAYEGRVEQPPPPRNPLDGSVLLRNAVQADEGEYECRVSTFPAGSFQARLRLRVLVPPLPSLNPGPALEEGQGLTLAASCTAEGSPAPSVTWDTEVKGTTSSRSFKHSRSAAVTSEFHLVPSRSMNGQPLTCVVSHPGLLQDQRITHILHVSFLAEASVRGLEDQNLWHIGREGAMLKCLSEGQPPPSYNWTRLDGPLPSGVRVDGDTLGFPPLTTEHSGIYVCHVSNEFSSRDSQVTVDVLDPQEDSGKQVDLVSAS

T7: 重组人结合素4-His蛋白 (recombinant human Nectin-4-His) (human, UniProt Q96NY8 32-349)
T7 construct: Analyte in SPR; also called 人重组结合素-4; not shown: His tag
T7 sequence: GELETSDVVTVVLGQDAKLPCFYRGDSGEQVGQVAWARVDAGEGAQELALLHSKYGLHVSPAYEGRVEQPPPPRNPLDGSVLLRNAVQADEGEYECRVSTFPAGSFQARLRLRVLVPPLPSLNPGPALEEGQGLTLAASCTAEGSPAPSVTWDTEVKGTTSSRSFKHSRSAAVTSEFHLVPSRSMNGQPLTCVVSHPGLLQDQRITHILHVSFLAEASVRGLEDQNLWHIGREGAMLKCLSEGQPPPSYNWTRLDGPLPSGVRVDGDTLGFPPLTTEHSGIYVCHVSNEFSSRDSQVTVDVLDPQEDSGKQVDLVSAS


Legend:
[1] = biological target: T1, 食蟹猴结合素-4 (cynomolgus Nectin-4); assay: flow cytometry on transiently transfected 293T cells; +++ = EC50 below 5nM
大鼠结合素-4 (rat Nectin-4) [2] = biological target: T2, 大鼠结合素-4 (rat Nectin-4); assay: flow cytometry on transiently transfected 293T cells; + = EC50 25nM to 133nM
大鼠结合素-4 (rat Nectin-4) [3] = biological target: T2, 大鼠结合素-4 (rat Nectin-4); assay: flow cytometry on transiently transfected 293T cells; +++ = EC50 below 5nM
小鼠结合素-4 (mouse Nectin-4) [4] = biological target: T3, 小鼠结合素-4 (mouse Nectin-4); assay: flow cytometry on transiently transfected 293T cells; + = EC50 25nM to 133nM
大鼠结合素-4 (rat Nectin-4) [5] = biological target: T2, 大鼠结合素-4 (rat Nectin-4); assay: flow cytometry on transiently transfected 293T cells; ++ = EC50 5nM to 25nM
小鼠结合素-4 (mouse Nectin-4) [6] = biological target: T3, 小鼠结合素-4 (mouse Nectin-4); assay: as above
[7] = biological target: T4, 人结合素-2 (recombinant human Nectin-2; …); assay: ELISA or Gator binding assay
[8] = biological target: T5, 人结合素-4变体 ΔV结构域 (human Nectin-4 lacking …); assay: flow cytometry on transiently transfected 293T cells
[9] = biological target: T6, 人重组结合素-4蛋白 (recombinant human Nectin-4, …); assay: ELISA, recombinant human Nectin-4 coated on plate
[10] = biological target: T7, 重组人结合素4-His蛋白 (recombinant human …); assay: SPR (BIAcore 3000), antibody captured by anti-human IgG on CM5, Nectin-4-His as analyte, 1:1 binding with mass transfer

Binder	EC50 [1] [nM]	EC50 (大鼠结合素-4 (rat Nectin-4) [2]) [nM]	EC50 (大鼠结合素-4 (rat Nectin-4) [3]) [nM]	EC50 (小鼠结合素-4 (mouse Nectin-4) [4]) [nM]	EC50 (大鼠结合素-4 (rat Nectin-4) [5]) [nM]	EC50 (小鼠结合素-4 (mouse Nectin-4) [6]) [nM]	binding result [7]	binding result [8]	EC50 [9] [nM]	Kd [10] [nM]
N4_mAb 4 (antibody, V domains shown) VH: DVQLQESGPDLVKPSQSLSLTCTVTGYSITSAYNWHWIRQFPGNKLEWMGYIHYSGRTNYNPSLKSRISITRDTSKNQFFLQLNSLTTEDTATYYCARWITTATGWYLDVWGAGTTVTVSS VL: not shown	< 5	25 to 133								
N4_mAb 5 (antibody, V domains shown) VH: EVQLQQSGPDLVKPGASVKISCKASGYSFTGHYMHWVKQSHGKSLEWIGRVNPNNGGSSYNQKFKDKAILTVDKSSTTAYMELRSLTSEDSAVYYCARDPLGGSYGFAYWGQGTLVTVSA VL: DIVLTQSPASLAVSLGQRATISCRASQSVTTSSYSYMHWYQQKPGQPPKLLIKYASNLESGVPARFSGSGSGTDFTLNIHPVEEEDTATYYCQHSWEIPYTFGGGTKLEMK	< 5		< 5	25 to 133						
N4_mAb 1 (antibody, V domains shown) VH: QVQLKQSGPGLVQPSQSLSITCTVSGFSLTNYGVNWVRQPPGKGLEWLGVIWSGGSTDYNAAFISRLSISKDISKSQVFFKMNSLQADDTAKYYCAREGYDGYAMDYWGQGTSVTVSS VL: DIQMTQSPASLSVSVGETVTITCRASENIFSSLAWYQQKQGKSPQLLVYGATNLADGVPSRFSGSGSGTQYSLKINSLQSEDFGTYWCQHFWGNPWTFGGGTKLEIK	< 5									
N4_mAb 2 (antibody, V domains shown) VH: QVQLKQSGPNLVQPSQSLSITCTVSGFSLTTYGAHWVRQSPGKGLEWLGVIWRGGSTDYNAAFMSRLSITKDNSKSQVFFKMNSLQADDTAIYYCAKIGYDGYAMDNWGQGTSVTVSS VL: DFQVTQSPASLSASVGETVTITCRTSENIHNYLAWYQQKQGKSPQLLVYNAKTLADGVPSRFSGSGSGTQYSLKINSLQPEDFGTYYCQHFWSSPWTFGGGTKLEIK	< 5				5 to 25	5 to 25				
N4_mAb 3 (antibody, V domains shown) VH: EVQLQQSGAELVKPGASVKLSCTVSGFNIKDTYMHWVKQRPEQGLEWIGRIDPANGNTKYDPKFQGKATIIADKASNTAYLQLSSLTSEDAAVYYCAHYYGSSYFAMDCWGQGTSVTVSS VL: DIVMTQSHKFMSTSVGDRVSITCKASQDVSTAVAWYQQKPGQSPKLLIYWASTRHTGVPDRFTGSGSGTDYTLTISSVQTEDLALYYCQQHYSTPLTFGAGTKLELK	< 5	25 to 133								
N4_mAb 6 (antibody, V domains shown, Murine variable regions) VH: QVQLQQSGPELVKPGASVRISCKASGYTFTTYYIHWVKQRPGQGLEWIGWIYPGNVNTKYTENFKDKATLTADKSSSTAYMQLSSLTSEDSAVYFCARGLYYFDFWGQGTTLTVSS VL: SIVMTQTPKFLLVSAGDRVTITCKASQSVNNDVAWYQQKPGQSPKLLIYYASNRDTGVPDRFTGSGFGTDFTFTISSVQAEDLAVYFCQQDYSSPYTFGGGTKLEIK	< 5		< 5			5 to 25	no binding	no binding (tested: 最高测试的抗体浓度(133nM))	0.03	0.392
N4_mAb 7 (antibody, V domains shown, Murine variable regions) VH: QVQLQQSGPELVKPGASVKMSCKASGYTFTTYYIHWVKQRPGQGLEWIGWIYPGNAGIKSNEKFKGKTTLTADKSSSTAYMLLSSLTSEDSAIYFCARGVYFFDYWGQGTTLTVSS VL: SIVMTQTPKFLLVSAGDRVTITCKASQSVNNDVSWFQQKPGQSPKLLIYYASNRYTGVPDRFSGSGYGTDFTFTITTVQAEDLAVYFCQQDYSSPYTFGGGTKLEIK	< 5		< 5			5 to 25	no binding	no binding (tested: 最高测试的抗体浓度(133nM))	0.04	0.39
N4_mAb 8 (antibody, V domains shown, Murine variable regions) VH: QVQLQQSGPVLVKPGASVRISCKASGYTFTSYYIHWVKQRPGQGLEWIGWIYPGNVNTKYNENFRDKATLTADKSSSTSYMQLSSLTSEDSAVYFCARGIYYFDYWGQGTTLTVSS VL: IIVMTQTPKFLLVSAGDRVTITCKASQSVNNDVAWYQEKPGQSPKLLIYYASNRDTGVPDRFTGSGYGTDFTFTISTVQAEDLAVYFCHQDYSSPFTFGSGTKLEIK	< 5		< 5			5 to 25	no binding	no binding (tested: 最高测试的抗体浓度(133nM))	0.14	0.375
